In paper PMC8245568, “Xyloglucan processing machinery in Xanthomonas pathogens and its role in the transcriptional activation of virulence factors” (Nature Communications, 2021):

How the values were obtained:
[1] = target: the molecule itself; assay: SEC-MALS; 25 °C; Superdex 200 HR 10/300 GL; 250 μL of protein at 50 μmol L^-1 injected; 20 mmol L^-1 HEPES pH 7.5, 150 mmol L^-1 NaCl
[2] = target: the molecule itself; assay: SAXS; protein samples at 1, 3, 5 and 10 mg mL^-1; D01A-SAXS2 beamline (LNLS); molecular weight by SAXSMoW

B1: XacGalD, GH35 β-galactosidase encoded by XAC1772 of Xanthomonas citri pv. citri 306, wild type (enzyme)
chain: not shown
notes: source: E. coli, purified (two chromatographic steps)
stoichiometry N [1]: 4

B2: XacAfc95, GH95 α-1,2-L-fucosidase encoded by XAC1774 of Xanthomonas citri pv. citri 306 (enzyme)
chain: not shown
notes: A signal peptide was probably left out of the construct (surmise); also called GH95 α-L-fucosidase; source: E. coli, purified (two chromatographic steps)
stoichiometry N [2]: 2
